Data on 4 molecules can be found in patent US6210671A, “Humanized antibodies reactive with L-selectin” (Protein Design Labs, Inc., priority 1995, dated 2001).

Experiment [1] relates to binding of human neutrophils to IL-1 stimulated human umbilical cord endothelial cells (HUVEC). The experiment is described as follows: Adhesion of human neutrophils to IL-1 stimulated HUVEC. The following applies: HUVEC stimulated with 20 ng/ml IL-1β for 4 hr; 4° C., 30 min. The experiment is classed as cell-based. How it is done:
FIG. 5A. Binding of human neutrophils to IL-1 stimulated human umbilical cord endothelial cells (HUVEC). The neutrophils were first treated with irrelevant control antibody, mouse DREG-200 antibody, or humanized IgG1 DREG-200 antibody, or left untreated, as indicated.
The ability of the mouse and humanized DREG-200 antibodies to block the adhesion of human neutrophils to endothelial cells was determined using a modification of the assay method of Hallmann et al., Biochem. Biophys. Res. Comm. 174:236 (1991). Specifically, human umbilical cord endothelial cells (HUVEC; from Clonetics, San Diego) were grown to confluence in EGM medium (Clonetics) in Lab-Tek 8-chamber slides (Nunc, Naperville, Ill.). The HUVEC cells were stimulated with 20 ng/ml IL-1β (R&D Systems, Minneapolis, Minn.) for 4 hr before use. Neutrophils were isolated by density gradient centrifugation from buffy coats that had been cleared of erythrocytes by dextran sedimentation, and then adjusted to 10^7 per ml. The neutrophils (100 μl) were pre-incubated for 20 minutes on ice with varying concentrations of antibody (in 100 μl RPMI). The HUVEC slides were washed free of IL-1β and placed on a rotary shaker (100 rpm) at 4° C. […] Neutrophil adherence was quantified by counting the neutrophils attached to a defined area of the endothelial cell monolayer with a microscope.

The test system of a further experiment is rabbit leukocytes. The conditions noted are these: reported in the literature; cited from earlier work.
Experiment [2] concerns binding of human lymphocytes to peripheral lymph node high endothelial venules. The following applies: Kishimoto et al.; cited from earlier work.
Experiment [3] concerns binding of human neutrophils to stimulated human umbilical vein endothelial cells. The conditions noted are these: Kishimoto et al., Blood 78:805 (1991); cited from earlier work.
The subject of experiment [4] is L-selectin. Put plainly: Flow cytometry binding to L1-2 L-selectin transfectants. The following applies: 1 hour incubation; FITC-conjugated goat anti-human Ig. How it is done: FIG. 8: Binding of humanized DREG-55 to L1-2^L-selectin transfectants compared to binding of control antibody as analyzed by flow cytometry. Fluorescence intensity is indicated on the x-axis.
After washing, cells were incubated in a 1:250 dilution of FITC-conjugated goat anti-human Ig, washed, then analyzed for fluorescence by flow cytometry (FACS).
On the technique in general: A flow cytometer gives signals particle by particle.

The test system of experiment [5] is binding of human PBMC to peripheral lymph node high endothelial venules. The experiment is described as follows: Adhesion of human PBMC to peripheral lymph node high endothelial venules. The following applies: frozen sections of mouse peripheral lymph nodes; 25 minutes. The format is cell-based. How it is done: FIG. 10: Inhibition of binding of human PBMC to peripheral lymph node high endothelial venules by humanized DREG-55 (HuDREG-55) and humanized DREG-200 (HuDREG-200). The average number of cells bound per HEV for each antibody treatment is shown. Error bars show the standard errors of the values calculated for three sections.
Human peripheral blood mononuclear cells were isolated and cultured for 2 days at 37° C. in 10% FBS/DMEM. After washing and resuspending in assay medium (5% FBS/DMEM/10 mM HEPES, pH 6.9) at 7×10^6 /ml in the presence of the indicated concentrations of humanized DREG-55, humanized DREG-200 or negative control antibody, cells were applied to frozen sections of mouse peripheral lymph nodes (PLN) while rotating at 50 rpm (as described in Streeter et al., Cell 107, 1853 (1988)). After 25 minutes, non-adherent cells were gently dumped and adherent cells fixed to sections by immersion in 1.5% glutaraldehyde-PBS. Slides were counterstained with thionine and the number of cells bound to each high endothelial venule (HEV) (n=60) in triplicate sections was determined microscopically. The average number of cells bound per HEV for each treatment was calculated.

The subject of experiment [6] is L-selectin. The experiment is described as follows: Competitive binding of mouse and humanized DREG-55 to CHO L-selectin cells. The following applies: 2 hr at 4° C. How it is done:
FIG. 9: Competitive binding of mouse and humanized DREG-55 antibodies to CHO^L-selectin cells expressing L-selectin. Increasing concentrations of cold competitor antibody were incubated with the cells in the presence of radiolabeled tracer humanized DREG-55 antibody, and the ratio of bound/free radioactivity was determined.
The affinity of the humanized DREG-55 antibody for L-selectin was determined by competition with the radio-iodinated humanized DREG-55 antibody (FIG. 9). Purified humanized DREG-55 antibody was labeled with Na^125 I (Amersham, Arlington Heights, Ill.) using lactoperoxidase to 4 mCi/mg of protein (Marchalonis, Biochem. J. 113, 299 (1969)). CHO^L-selectin cells, which were obtained by transfecting the L-selectin genes into the host CHO cells, were used as a source for L-selectin. […] Cells were then washed and centrifuged, and their radioactivities measured. The ratio of bound and free tracer antibody were calculated. The binding affinities were calculated according to the methods of Berzofsky and Berkower (J. A. Berzofsky and I. J. Berkower, in Fundamental Immunology (ed. W. E. Paul), Raven Press (New York), p. 595 (1984), which is incorporated herein by reference).

The test system of another experiment is human L-selectin. The experiment is described as follows: Competitive binding of mouse and humanized DREG-200 antibodies against 125I-labeled mouse DREG-200 on transfected cells. The conditions noted are these: competition with radio-iodinated mouse DREG-200; 1 hr at 4° C. How it is done: FIG. 4. Competitive binding of mouse and humanized IgG1 and IgG4 DREG-200 antibodies. The target cells were L2-1 cells, a mouse pre-B cell line, that was transfected with a human L-selectin gene and thus expresses human L-selectin (Berg et al., Biochem. Biophys. Res. Comm. 184:1048 (1992)). 5×10^5 cells were incubated with 3 ng of ^125 I-labeled tracer mouse antibody (2 μCi/μg), together with increasing amounts of mouse or humanized competitor antibody as indicated in 0.2 ml of binding buffer (PBS+2% FBS+0.1% azide) for 1 hr at 4° C. Cells were washed and pelleted, and their bound radioactivity measured. The concentrations of bound and free tracer antibody were calculated.
The affinity of the humanized DREG-200 antibodies for L-selectin were determined by competition with the radio-iodinated mouse DREG-200 antibody (FIG. 4). The binding affinities were calculated according to the methods of Berzofsky (J. A. Berzofsky and I. J. Berkower, in Fundamental Immunology (ed. W. E. Paul), Raven Press (New York), 595 (1984), which is incorporated herein by reference in its entirety for all purposes).

In a further experiment the test system is cat leukocytes. The following applies: reported in the literature; cited from earlier work.

On to “mouse DREG-200: mouse monoclonal antibody that binds to human L-selectin (Kishimoto et al.); CDR donor [reference compound]”, for which the “blocking of binding of neutrophils to HUVEC” value in [1] was “effectively blocked”. Also, the “cross-reactivity with rabbit leukocytes” value in the experiment on rabbit leukocytes is given as “cross-reactivity”. The “blocking of binding of human lymphocytes to peripheral lymph node high endothelial venules” value in experiment [2] is “partially or completely block”. Besides, the “blocking of binding of human neutrophils to stimulated human umbilical vein endothelial cells” value in experiment [3] is recorded as “partially or completely block”.

B1: humanized DREG-55: humanized anti-L-selectin antibody, mouse DREG-55 CDRs in human Gal framework, sequences in FIG. 7 (antibody, V domains shown)
VH: MNFGSSLIFLVLVLKGVQCEVQLVESGGGLVQPGGSLRLSCAASGFTFSTYAMSWVRQAPGKGLEWVASISTGGSTYYPDSVKGRFTISRDNAKNTLYLQMNSLRAEDTAVYYCARDYDGYFDYWGQGTLVTVSS
VL: METDTILLWVLLLWVPGSTGDIQMTQSPSSLSASVGDRVTITCKASQSVDYDGDSYMNWYQQKPGKAPKLLIYAASNLESGIPSRFSGSGSGTDFTLTISSLQPEDFATYYCQQSNEDPWTFGQGTKVEIK
With B1, the “binding to L1-2 L-selectin transfectants by flow cytometry” value with L-selectin [4] is on record as “reacts”. Besides, the “adhesion of human PBMC to lymph node high endothelial venules” value in experiment [5] is recorded as “block adhesion”.

B2: mouse DREG-55: mouse monoclonal antibody that binds to human L-selectin (Kishimoto et al.); CDR donor (antibody, V domains shown)
VH: MNFGSSLIFLVLVLKGVQCEVKLVESGGGLVKPGGSLKLACAASGFTFSTYAMSWVRQTPEKRLEWVASISTGGSTYYPDSVKGRFTISRDNARNILYLQMSSLRSEDTAMYYCARDYDGYFDYWGQGTTLTVSS
VL: METDTILLWVLLLWVPGSTGDIVLTQSPASLSVSLGERASISCKASQSVDYDGDSYMNWYQQKPGQPPKLLIYAASNLESGIPARFSGSGSGTDFTLNIHPVEEEDAATYYCQQSNEDPWTFGGGTKLEIK
With B2, in the experiment with L-selectin [6], the “affinity for L-selectin compared with humanized DREG-55” value is given as “no significant difference”. Moreover, in experiment [2], the “blocking of binding of human lymphocytes to peripheral lymph node high endothelial venules” value is “partially or completely block”. The “blocking of binding of human neutrophils to stimulated human umbilical vein endothelial cells” value in [3] is given as “partially or completely block”.

B3: humanized DREG-200: humanized anti-L-selectin antibody, mouse DREG-200 CDRs in human Eu framework, sequences in FIG. 2; isotype not stated at these places (antibody, V domains shown)
VH: MGWSCIILFLVATATGVHSQVQLVQSGAEVKKPGSSVKVSCKASGYTFTSYVMHWVRQAPGQGLEWIGYIYPYNDGTKYNEKFKGRVTITSDESTNTAYMELSSLRSEDTAVYYCAREEYGNYVRYFDVWGQGTLVTVSS
VL: MVFTPQILGLMLFWISASRGDIQMTQSPSTLSASVGDRVTITCKSSQSLLNSSNQKNYLAWYQQKPGKAPKLLVYFASTRESGVPDRFIGSGSGTDFTLTISSLQPEDFATYFCHQHYSTPLTFGQGTKVEVK
Regarding B3, in the experiment on human L-selectin, the “affinity relative to the mouse DREG-200 antibody” value is ≤ 2 fold. Besides, the “adhesion of human PBMC to lymph node high endothelial venules” value in experiment [5] was “block adhesion”. Besides, the “cross-reactivity with cat leukocytes” value with cat leukocytes is “cross-reactivity”.
